# According to IntAct's records for PubMed 17289029:
# B1: Zinc finger protein GLIS2 (Homo sapiens), Q9BZE0 (parent)
# chain: MHSLDEPLDLKLSITKLRAAREKRERTLGVVRPRALHRELGLVDDSPTPGSPGSPPSGFLLNSKFPEKVEGRFSAAPLVDLSLSPPSGLDSPNGSSSLSPERQGNGDLPPVPSASDFQPLRYLDGVPSSFQFFLPLGSGGALHLPASSFLTPPKDKCLSPDLPLPKQLVCRWAKCNQLFELLQDLVDHVNDYHVKPEKDAGYCCHWEGCARHGRGFNARYKMLIHIRTHTNEKPHRCPTCSKSFSRLENLKIHNRSHTGEKPYVCPYEGCNKRYSNSSDRFKHTRTHYVDKPYYCKMPGCHKRYTDPSSLRKHIKAHGHFVSHEQQELLQLRPPPKPPLPAPDGGPYVSGAQIIIPNPAALFGGPGLPGLPLPLAPGPLDLSALACGNGGGSGGGGGMGPGLPGPVLPLNLAKNPLLPSPFGAGGLGLPVVSLLAGAAGGKAEGEKGRGSVPTRALGMEGHKTPLERTESSCSRPSPDGLPLLPGTVLDLSTGVNSAASSPEALAPGWVVIPPGSVLLKPAVVN
# Variants of: B1
# Details: with ctnb1_human CTNNB1, P35222
# Sequence of ctnb1_human CTNNB1, P35222 (P35222 whole entry): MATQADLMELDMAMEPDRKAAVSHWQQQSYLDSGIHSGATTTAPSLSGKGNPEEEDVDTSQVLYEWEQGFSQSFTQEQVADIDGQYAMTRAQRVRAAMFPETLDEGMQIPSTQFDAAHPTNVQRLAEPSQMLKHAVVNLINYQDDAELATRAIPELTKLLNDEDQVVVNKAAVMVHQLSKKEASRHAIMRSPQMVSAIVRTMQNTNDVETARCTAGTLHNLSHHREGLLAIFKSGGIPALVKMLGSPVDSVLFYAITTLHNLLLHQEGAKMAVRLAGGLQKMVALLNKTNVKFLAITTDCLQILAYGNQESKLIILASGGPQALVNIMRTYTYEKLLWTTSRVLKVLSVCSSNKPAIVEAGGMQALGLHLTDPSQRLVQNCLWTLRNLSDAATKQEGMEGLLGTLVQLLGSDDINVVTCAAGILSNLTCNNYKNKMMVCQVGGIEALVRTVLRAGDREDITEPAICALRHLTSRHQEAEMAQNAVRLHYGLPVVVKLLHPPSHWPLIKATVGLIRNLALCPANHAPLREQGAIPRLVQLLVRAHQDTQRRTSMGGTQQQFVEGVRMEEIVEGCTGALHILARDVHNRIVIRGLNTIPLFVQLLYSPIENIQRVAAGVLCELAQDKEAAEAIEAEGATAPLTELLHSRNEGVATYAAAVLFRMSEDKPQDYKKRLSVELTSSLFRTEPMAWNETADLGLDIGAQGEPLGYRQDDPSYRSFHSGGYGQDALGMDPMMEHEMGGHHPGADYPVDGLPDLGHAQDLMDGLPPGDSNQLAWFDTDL
row,Variant,effect of a mutation on the interaction
1,C175A,disrupting interaction
